According to patent publication US20170008943A1 (Novo Nordisk, published 2017):
*1 amine or outer side, *2 acyl side, *3 side chain or, on linkers, in order; H or OH if unused. Side-chain parts run from the residue outwards. [ ]: non-standard residue; d: D form. The star is where a group is joined. γGlu = O=C(O)[C@H](CCC(=O)[*:2])N[*:1]; Desaminohistidyl = O=C(CCc1c[nH]cn1)*; Aib = CC(C)(N)C(=O)O

B1: N^ε24-[(4S)-4-[[(4S)-4-[[(4S)-4-[[(4S)-4-acetamido-4-carboxybutanoyl]amino]-4-carboxybutanoyl]amino]-4-carboxybutanoyl]amino]-4-carboxybutanoyl]-[Imp1, Aib2, … (peptide)
peptide: [Desaminohistidyl][Aib]HGTFTSDYSKYLESRRAQDFVK([γGlu-γGlu-γGlu-γGlu-Ac])WLLST-OH
SMILES: CC(=O)N[C@@H](CCC(=O)N[C@@H](CCC(=O)N[C@@H](CCC(=O)N[C@@H](CCC(=O)NCCCC[C@H](NC(=O)[C@@H](NC(=O)[C@H](Cc1ccccc1)NC(=O)[C@H](CC(=O)O)NC(=O)[C@H](CCC(N)=O)NC(=O)[C@H](C)NC(=O)[C@H](CCCNC(=N)N)NC(=O)[C@H](CCCNC(=N)N)NC(=O)[C@H](CO)NC(=O)[C@H](CCC(=O)O)NC(=O)[C@H](CC(C)C)NC(=O)[C@H](Cc1ccc(O)cc1)NC(=O)[C@H](CCCCN)NC(=O)[C@H](CO)NC(=O)[C@H](Cc1ccc(O)cc1)NC(=O)[C@H](CC(=O)O)NC(=O)[C@H](CO)NC(=O)[C@@H](NC(=O)[C@H](Cc1ccccc1)NC(=O)[C@@H](NC(=O)CNC(=O)[C@H](Cc1c[nH]cn1)NC(=O)C(C)(C)NC(=O)CCc1c[nH]cn1)[C@@H](C)O)[C@@H](C)O)C(C)C)C(=O)N[C@@H](Cc1c[nH]c2ccccc12)C(=O)N[C@@H](CC(C)C)C(=O)N[C@@H](CC(C)C)C(=O)N[C@@H](CO)C(=O)N[C@H](C(=O)O)[C@@H](C)O)C(=O)O)C(=O)O)C(=O)O)C(=O)O
notes: Imp and Aib written X under substitutions
B2: N^ε24-[(4S)-4-[[(4S)-4-[[(4S)-4-[[(4S)-4-acetamido-4-carboxybutanoyl]amino]-4-carboxybutanoyl]amino]-4-carboxybutanoyl]amino]-4-carboxybutanoyl]-[Imp1, Aib2, … (peptide)
peptide: [Desaminohistidyl][Aib]HGTFTSDYSKYLDVRRAQDFVK([γGlu-γGlu-γGlu-γGlu-Ac])WLLST-OH
SMILES: CC(=O)N[C@@H](CCC(=O)N[C@@H](CCC(=O)N[C@@H](CCC(=O)N[C@@H](CCC(=O)NCCCC[C@H](NC(=O)[C@@H](NC(=O)[C@H](Cc1ccccc1)NC(=O)[C@H](CC(=O)O)NC(=O)[C@H](CCC(N)=O)NC(=O)[C@H](C)NC(=O)[C@H](CCCNC(=N)N)NC(=O)[C@H](CCCNC(=N)N)NC(=O)[C@@H](NC(=O)[C@H](CC(=O)O)NC(=O)[C@H](CC(C)C)NC(=O)[C@H](Cc1ccc(O)cc1)NC(=O)[C@H](CCCCN)NC(=O)[C@H](CO)NC(=O)[C@H](Cc1ccc(O)cc1)NC(=O)[C@H](CC(=O)O)NC(=O)[C@H](CO)NC(=O)[C@@H](NC(=O)[C@H](Cc1ccccc1)NC(=O)[C@@H](NC(=O)CNC(=O)[C@H](Cc1c[nH]cn1)NC(=O)C(C)(C)NC(=O)CCc1c[nH]cn1)[C@@H](C)O)[C@@H](C)O)C(C)C)C(C)C)C(=O)N[C@@H](Cc1c[nH]c2ccccc12)C(=O)N[C@@H](CC(C)C)C(=O)N[C@@H](CC(C)C)C(=O)N[C@@H](CO)C(=O)N[C@H](C(=O)O)[C@@H](C)O)C(=O)O)C(=O)O)C(=O)O)C(=O)O
notes: as for B1
B3: N^ε24-[(4S)-4-[[(4S)-4-[[(4S)-4-[[(4S)-4-acetamido-4-carboxybutanoyl]amino]-4-carboxybutanoyl]amino]-4-carboxybutanoyl]amino]-4-carboxybutanoyl]-[Imp1, Aib2, … (peptide)
peptide: [Desaminohistidyl][Aib]HGTFTSDLSKYLESRRAQDFVK([γGlu-γGlu-γGlu-γGlu-Ac])WLLST-OH
SMILES: CC(=O)N[C@@H](CCC(=O)N[C@@H](CCC(=O)N[C@@H](CCC(=O)N[C@@H](CCC(=O)NCCCC[C@H](NC(=O)[C@@H](NC(=O)[C@H](Cc1ccccc1)NC(=O)[C@H](CC(=O)O)NC(=O)[C@H](CCC(N)=O)NC(=O)[C@H](C)NC(=O)[C@H](CCCNC(=N)N)NC(=O)[C@H](CCCNC(=N)N)NC(=O)[C@H](CO)NC(=O)[C@H](CCC(=O)O)NC(=O)[C@H](CC(C)C)NC(=O)[C@H](Cc1ccc(O)cc1)NC(=O)[C@H](CCCCN)NC(=O)[C@H](CO)NC(=O)[C@H](CC(C)C)NC(=O)[C@H](CC(=O)O)NC(=O)[C@H](CO)NC(=O)[C@@H](NC(=O)[C@H](Cc1ccccc1)NC(=O)[C@@H](NC(=O)CNC(=O)[C@H](Cc1c[nH]cn1)NC(=O)C(C)(C)NC(=O)CCc1c[nH]cn1)[C@@H](C)O)[C@@H](C)O)C(C)C)C(=O)N[C@@H](Cc1c[nH]c2ccccc12)C(=O)N[C@@H](CC(C)C)C(=O)N[C@@H](CC(C)C)C(=O)N[C@@H](CO)C(=O)N[C@H](C(=O)O)[C@@H](C)O)C(=O)O)C(=O)O)C(=O)O)C(=O)O
notes: as for B1
B4: N^ε24-[(4S)-4-[[(4S)-4-[[(4S)-4-[[(4S)-4-acetamido-4-carboxybutanoyl]amino]-4-carboxybutanoyl]amino]-4-carboxybutanoyl]amino]-4-carboxybutanoyl]-[Imp1, Aib2, … (peptide)
peptide: [Desaminohistidyl][Aib]HGTFTSDYSKYLDLRRAQDFVK([γGlu-γGlu-γGlu-γGlu-Ac])WLLST-OH
SMILES: CC(=O)N[C@@H](CCC(=O)N[C@@H](CCC(=O)N[C@@H](CCC(=O)N[C@@H](CCC(=O)NCCCC[C@H](NC(=O)[C@@H](NC(=O)[C@H](Cc1ccccc1)NC(=O)[C@H](CC(=O)O)NC(=O)[C@H](CCC(N)=O)NC(=O)[C@H](C)NC(=O)[C@H](CCCNC(=N)N)NC(=O)[C@H](CCCNC(=N)N)NC(=O)[C@H](CC(C)C)NC(=O)[C@H](CC(=O)O)NC(=O)[C@H](CC(C)C)NC(=O)[C@H](Cc1ccc(O)cc1)NC(=O)[C@H](CCCCN)NC(=O)[C@H](CO)NC(=O)[C@H](Cc1ccc(O)cc1)NC(=O)[C@H](CC(=O)O)NC(=O)[C@H](CO)NC(=O)[C@@H](NC(=O)[C@H](Cc1ccccc1)NC(=O)[C@@H](NC(=O)CNC(=O)[C@H](Cc1c[nH]cn1)NC(=O)C(C)(C)NC(=O)CCc1c[nH]cn1)[C@@H](C)O)[C@@H](C)O)C(C)C)C(=O)N[C@@H](Cc1c[nH]c2ccccc12)C(=O)N[C@@H](CC(C)C)C(=O)N[C@@H](CC(C)C)C(=O)N[C@@H](CO)C(=O)N[C@H](C(=O)O)[C@@H](C)O)C(=O)O)C(=O)O)C(=O)O)C(=O)O
notes: Imp and Aib are written X under substitutions because they have no one-letter code
B5: N^ε24-[(4S)-4-[[(4S)-4-[[(4S)-4-[[(4S)-4-acetamido-4-carboxybutanoyl]amino]-4-carboxybutanoyl]amino]-4-carboxybutanoyl]amino]-4-carboxybutanoyl]-[Imp1, Aib2, … (peptide)
peptide: [Desaminohistidyl][Aib]HGTFTSDYSKYLESRRAQEFVK([γGlu-γGlu-γGlu-γGlu-Ac])WLLST-OH
SMILES: CC(=O)N[C@@H](CCC(=O)N[C@@H](CCC(=O)N[C@@H](CCC(=O)N[C@@H](CCC(=O)NCCCC[C@H](NC(=O)[C@@H](NC(=O)[C@H](Cc1ccccc1)NC(=O)[C@H](CCC(=O)O)NC(=O)[C@H](CCC(N)=O)NC(=O)[C@H](C)NC(=O)[C@H](CCCNC(=N)N)NC(=O)[C@H](CCCNC(=N)N)NC(=O)[C@H](CO)NC(=O)[C@H](CCC(=O)O)NC(=O)[C@H](CC(C)C)NC(=O)[C@H](Cc1ccc(O)cc1)NC(=O)[C@H](CCCCN)NC(=O)[C@H](CO)NC(=O)[C@H](Cc1ccc(O)cc1)NC(=O)[C@H](CC(=O)O)NC(=O)[C@H](CO)NC(=O)[C@@H](NC(=O)[C@H](Cc1ccccc1)NC(=O)[C@@H](NC(=O)CNC(=O)[C@H](Cc1c[nH]cn1)NC(=O)C(C)(C)NC(=O)CCc1c[nH]cn1)[C@@H](C)O)[C@@H](C)O)C(C)C)C(=O)N[C@@H](Cc1c[nH]c2ccccc12)C(=O)N[C@@H](CC(C)C)C(=O)N[C@@H](CC(C)C)C(=O)N[C@@H](CO)C(=O)N[C@H](C(=O)O)[C@@H](C)O)C(=O)O)C(=O)O)C(=O)O)C(=O)O
notes: as for B1

target: T1, human glucagon receptor (human, UniProt P47871 26-477); test: cell-based or functional assay
T1 sequence (P47871 26-477): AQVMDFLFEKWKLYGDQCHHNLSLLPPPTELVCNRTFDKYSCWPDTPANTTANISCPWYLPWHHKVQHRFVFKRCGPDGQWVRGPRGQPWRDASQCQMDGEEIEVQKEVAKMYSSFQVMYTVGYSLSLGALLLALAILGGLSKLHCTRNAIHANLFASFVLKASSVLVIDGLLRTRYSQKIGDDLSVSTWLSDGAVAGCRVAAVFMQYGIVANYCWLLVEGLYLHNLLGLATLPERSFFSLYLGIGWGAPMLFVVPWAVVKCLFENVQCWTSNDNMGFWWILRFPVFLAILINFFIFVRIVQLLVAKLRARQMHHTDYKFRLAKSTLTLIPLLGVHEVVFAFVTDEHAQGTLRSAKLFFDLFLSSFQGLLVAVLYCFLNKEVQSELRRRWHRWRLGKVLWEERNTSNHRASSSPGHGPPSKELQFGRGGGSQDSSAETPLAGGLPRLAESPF

| Binder | EC50 hGlucagonR (pM), CRE luciferase reporter in BHK cells |
| --- | --- |
| B1 | 5 pM |
| B2 | 2 pM |
| B3 | 10 pM |
| B4 | 1 pM |
| B5 | 2 pM |

target: T1, human glucagon receptor; test: displacement of 125I-glucagon from BHK membranes with human glucagon receptor (SPA), Assay (II)(b)

| Binder | IC50 |
| --- | --- |
| B1 | 1.9 nM |
| B2 | 0.5 nM |
| B3 | 4.9 nM |
| B4 | 0.2 nM |
| B5 | 1 nM |
